Numbered stars: 1 amine (or outer) side, 2 acyl side, 3 side chain; on linkers, the order of the positions; unused ones are H or OH. Bridge positions count the residues as written; N and C are the ends. Square brackets hold non-standard residues; d marks the D form. Ends that are not written are not given here. Peptide text beside a SMILES is read from it. ξ: configuration not given here. ξαMeNle(6-ylidene) = CC(CCCC=[*:3])(N[*:1])C(=O)[*:2]
Tests used:
MDCK and HEK293 cells [1] = experiment: Cell toxicity: release of LDH in the medium (necrosis); format: cell-based
Procedure: (§1) (A and B) MDCK and HEK293 cells were incubated as described in previous figures with TAT-F1 or TAT-P5. Cell toxicity was then assessed by measuring release of LDH in the medium and caspase 3/7 activity in cell extracts. […] Direct lysis of cells served as a positive control in (A) whereas active caspases were used as controls in (B).
as §1, with “stapled-P5.” for “TAT-F1 or TAT-P5.”, “for LDH release” for “in (A)”, “used” for “used as controls”, “caspase assays.” for “(B).”
(§2) The potency of GEF-H1 inhibitors was analysed in cell-based assays to determine effectiveness of inhibition of GEF-H1 signalling and specificity for GEF-H1, and in cell-based assays modelling epithelial degeneration or inflammatory disease. Potential toxicity of the inhibitors was determined by measuring apoptosis (Caspase3/7 activation) and necrosis (release of […]).

MDCK and HEK293 cells [2] = experiment: Cell toxicity: caspase 3/7 activity in cell extracts (apoptosis); format: cell-based
Procedure: as §1
as §1, with “stapled-P5.” for “TAT-F1 or TAT-P5.”, “for LDH release” for “in (A)”, “used” for “used as controls”, “caspase assays.” for “(B).”
as §2

[3] = system: interaction between RhoA and constitutively active GEF-H1 (DH/PH module); experiment: GST-RhoA pulldown of constitutively active GEF-H1 from cell extracts; format: binding; details: GST-RhoA pull down, FIG. 5
Procedure: Recombinant fusion proteins of GST and RhoA were used for pulldown of constitutively active GEF-H1 from cell extracts. (A) Candidate peptide inhibitors were added to the pulldown. (B, C) Recombinant fragments from the CTD of GEF-H1 were added. Note, the further analysed P5 and F1 peptide inhibitors both block the interaction between RhoA and active GEF-H1.
2) Active GEF-H1 binds with high affinity to nucleotide-free and GDP-bound RhoA, its physiological substrate. […] Thus, both F1 and P5 block GEF-H1 function by the same mechanism. Based on these functional and biochemical assays (FIGS. 4 and 5), F1 and P5 were selected for further analysis and refinement. Membrane permeable derivatives were synthesized for both inhibitors: TAT-F1 and TAT-P5.
The P5 sequence and modified versions thereof, are derived from the interaction surface of RhoA with the active site of GEF-H1 (i.e., the DH domain). […] The same is true for the F1 sequence, as it blocks binding of RhoA to a DH/PH domain construct (FIG. 5).

GEF-H1 [4] = target: T1, GEF-H1 (Canis lupus familiaris, UniProt Q865S3); experiment: GEF-H1 overexpression-induced cell spreading / cell shape morphological assay; format: cell-based
T1 sequence (Q865S3 1-986): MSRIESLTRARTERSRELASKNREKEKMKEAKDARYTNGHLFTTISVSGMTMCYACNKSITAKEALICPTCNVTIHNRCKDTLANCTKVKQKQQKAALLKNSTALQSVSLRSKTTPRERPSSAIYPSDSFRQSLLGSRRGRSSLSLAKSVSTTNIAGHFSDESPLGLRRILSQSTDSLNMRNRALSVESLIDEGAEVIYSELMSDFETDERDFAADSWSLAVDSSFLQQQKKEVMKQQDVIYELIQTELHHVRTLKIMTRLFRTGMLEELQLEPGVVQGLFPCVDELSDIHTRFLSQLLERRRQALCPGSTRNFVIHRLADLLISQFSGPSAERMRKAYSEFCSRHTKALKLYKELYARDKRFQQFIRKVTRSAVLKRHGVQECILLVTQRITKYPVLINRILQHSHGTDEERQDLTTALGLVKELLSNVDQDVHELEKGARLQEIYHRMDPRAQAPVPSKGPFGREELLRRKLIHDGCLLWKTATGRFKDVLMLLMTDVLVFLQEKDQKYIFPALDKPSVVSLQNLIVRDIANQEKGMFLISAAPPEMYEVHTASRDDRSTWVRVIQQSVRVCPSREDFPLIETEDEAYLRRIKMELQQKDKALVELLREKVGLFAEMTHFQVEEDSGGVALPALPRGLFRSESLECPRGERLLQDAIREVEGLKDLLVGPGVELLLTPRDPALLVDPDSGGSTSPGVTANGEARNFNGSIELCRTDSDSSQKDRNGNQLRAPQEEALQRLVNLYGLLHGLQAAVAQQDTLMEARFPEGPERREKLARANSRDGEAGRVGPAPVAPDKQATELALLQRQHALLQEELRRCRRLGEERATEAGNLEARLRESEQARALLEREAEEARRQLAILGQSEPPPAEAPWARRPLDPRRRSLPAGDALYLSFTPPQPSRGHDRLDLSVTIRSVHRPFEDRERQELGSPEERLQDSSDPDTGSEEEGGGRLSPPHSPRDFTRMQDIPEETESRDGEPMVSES

GEF-H1 [5] = experiment: SRE / αSMA promoter luciferase reporter gene assays of GEF-H1 signalling; format: cell-based; details: GEF-H1 overexpression
p114RhoGEF = target: T2, p114RhoGEF (Homo sapiens, UniProt Q6ZSZ5); experiment: p114RhoGEF-induced cell rounding in MDCK cells (specificity); format: cell-based
T2 sequence (Q6ZSZ5 1-1015 isoform Q6ZSZ5-2): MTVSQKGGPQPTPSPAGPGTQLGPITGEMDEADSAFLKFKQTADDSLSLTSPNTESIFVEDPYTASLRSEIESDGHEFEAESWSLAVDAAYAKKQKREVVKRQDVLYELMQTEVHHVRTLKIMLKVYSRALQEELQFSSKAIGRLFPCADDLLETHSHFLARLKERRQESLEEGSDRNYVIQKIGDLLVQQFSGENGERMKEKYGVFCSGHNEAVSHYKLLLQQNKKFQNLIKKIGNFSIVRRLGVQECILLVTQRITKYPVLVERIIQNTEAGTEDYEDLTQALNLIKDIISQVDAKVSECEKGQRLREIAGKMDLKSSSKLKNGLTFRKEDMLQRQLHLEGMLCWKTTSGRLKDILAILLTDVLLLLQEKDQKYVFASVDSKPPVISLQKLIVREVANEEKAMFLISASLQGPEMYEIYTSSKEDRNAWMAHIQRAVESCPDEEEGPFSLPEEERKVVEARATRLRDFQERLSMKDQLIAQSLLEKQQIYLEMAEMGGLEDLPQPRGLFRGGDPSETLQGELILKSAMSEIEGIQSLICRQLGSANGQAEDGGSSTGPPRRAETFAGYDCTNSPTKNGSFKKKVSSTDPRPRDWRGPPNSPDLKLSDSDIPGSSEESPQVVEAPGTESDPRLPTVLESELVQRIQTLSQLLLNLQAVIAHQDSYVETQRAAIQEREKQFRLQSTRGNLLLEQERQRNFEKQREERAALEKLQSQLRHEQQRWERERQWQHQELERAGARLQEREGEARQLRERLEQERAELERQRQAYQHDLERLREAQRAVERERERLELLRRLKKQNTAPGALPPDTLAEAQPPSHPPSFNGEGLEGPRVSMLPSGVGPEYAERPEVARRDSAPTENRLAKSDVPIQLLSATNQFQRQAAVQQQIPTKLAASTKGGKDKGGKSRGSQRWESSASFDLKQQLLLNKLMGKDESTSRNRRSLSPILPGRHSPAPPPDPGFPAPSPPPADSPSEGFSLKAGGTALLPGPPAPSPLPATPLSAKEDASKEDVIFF

active Dbl = experiment: αSMA / SRE reporter assays in cells overexpressing active Dbl (specificity); format: cell-based; details: TAT-F1 4 μM
[6] = system: primary retinal pigment epithelial (RPE) cells; experiment: TGF-β stimulation of primary RPE cells (αSMA induction, junctional markers); format: cell-based
Procedure: Inhibition of TGF-β signaling in primary retinal pigment epithelial (RPE) cells. (A, B) Primary RPE cells were incubated with TAT-P5 or TAT-F1 and stimulated with TGF-β for five days. (A) αSMA and, as a loading control, tubulin expression were analysed by immunoblotting. […] (B) Expression of the junctional marker ZO-1 and tubulin were determined. (C) Primary RPE cells were incubated with TGF-β as in (A) but with stapled-P5, and expression of αSMA positive cells was analysed by immunofluorescence.
7) The inventors next tested the inhibitors in cell-based disease models. GEF-H1 drives fibrotic and degenrative responses in the RPE, which can be modelled by treating primary RPE cells with TGF-β.

[7] = system: Human primary endothelial cells; experiment: LPS-induced endothelial activation; format: cell-based
Description: GEF-H1 inhibitors prevent endothelial inflammatory responses induced by LPS. Human primary endothelial cells were stimulated with LPS in the presence or absence of the indicated GEF-H1 inhibitors. […] TAT-P5 and TAT-F1 attenuate cytoskeletal remodelling, ICAM1 induction, and attenuate loss of barrier function.
8) GEF-H1 regulates inflammatory responses in various cell types. […] Similarly, cytoskeletal remodeling and cell junction disruption was also attenuated in TNFα and Thrombin-stimulated endothelial cells.

[8] = stapled-P5, different concentrations analysed

CC(C)C[C@H](NC(=O)[C@@H](N)CCCNC(=N)N)C(=O)NC1(C)CCCC=CCCCC(C)(C(=O)N2CCC[C@H]2C(=O)N[C@@H](CC(=O)O)C(=O)N[C@H](C(=O)O)[C@@H](C)O)NC(=O)[C@H](CO)NC(=O)[C@H](C)NC(=O)[C@@H]2CCCN2C1=O (stereo partly shown) [stapled-P5, RL(X)PAS(X)PDT; X = 2,(4, pentenyl)alanine] (H-RL[ξαMeNle(6-ylidene)]PAS[ξαMeNle(6-ylidene)]PDT-OH; staple 3-7)
cell toxicity by release of LDH in the medium (MDCK and HEK293 cells [1]; [8]): No significant cell toxicity | cell toxicity by caspase 3/7 activity in cell extracts (MDCK and HEK293 cells [2]; [8]): No significant cell toxicity

GQEDYDRLRPASYPDTDVI (P5 amino acid sequence) [Peptide P5]
inhibition of the interaction between RhoA and constitutively active GEF-H1 [3]: inhibited the interaction | inhibition of overexpressed GEF-H1, comparison of P1 to P5 (GEF-H1 [4]; morphological assay (cell spreading) and SRE-driven reporter assay, peptide transfection): most effective inhibitor

GRKKRRQRRRPWQGQEDYDRLRPASYPDTDVI [TAT-P5]
cell toxicity by release of LDH in the medium (MDCK and HEK293 cells [1]; TAT-P5 5-20 μM): No significant cell toxicity | cell toxicity by caspase 3/7 activity in cell extracts (MDCK and HEK293 cells [2]; TAT-P5 5-20 μM): No significant cell toxicity

B1: F1: Fragment 1 of the auto-inhibitory C-terminal domain (CTD) of GEF-H1, SEQ ID NO: 2 (protein)
chain: SREDFPLIETEDEAYLRRIKMELQQKDKALVELLREKVGLFAEMTHFQVEEDSGGVALPALPRGLFRSESLECPRGERLLQDAIREVEGLKDLLVGPGVELLLTPRDPALLVDPDSGGSTSPGVTANGEARN
modifications: F1 amino acid sequence
inhibition of the interaction between RhoA and constitutively active GEF-H1 [3]: inhibited the interaction | auto-inhibitory activity / block of GEF-H1 function by CTD fragments (GEF-H1 [4]; FIGS. 4 and 5 (cell spreading, SRE reporter, pulldown)): blocks GEF-H1 function

B2: TAT-F1: F1 fused to a TAT sequence to render it membrane-permeable, SEQ ID NO: 7 (protein)
chain: MGGYGRKKRRQRRRGGGSGYPYDVPDYAGGSSSREDFPLIETEDEAYLRRIKMELQQKDKALVELLREKVGLFAEMTHFQVEEDSGGVALPALPRGLFRSESLECPRGERLLQDAIREVEGLKDLLVGPGVELLLTPRDPALLVDPDSGGSTSPGVTANGEARN
modifications: TAT-F1 amino acid sequence
transcription of the SRE-containing alpha-smooth muscle actin (αSMA) promoter (GEF-H1 [5]): inhibit transcription | inhibition of p114RhoGEF overexpression-induced cell rounding (p114RhoGEF): not inhibited | transcription from the αSMA promoter in cells overexpressing active Dbl (active Dbl): do not inhibit transcription | cell toxicity by release of LDH in the medium (MDCK and HEK293 cells [1]; TAT-F1 1-4 μM): No significant cell toxicity | cell toxicity by caspase 3/7 activity in cell extracts (MDCK and HEK293 cells [2]; TAT-F1 1-4 μM): No significant cell toxicity | downregulation of junctional markers ([6]; primary RPE cells treated with TGF-β, FIG. 11): inhibit downregulation | TGF-β-induced induction of αSMA, a marker of epithelial fibrosis ([6]; primary RPE cells, FIG. 11): effectively suppress | TGF-β induced αSMA expression normalised by tubulin (immunoblot) ([6]; primary RPE cells, TGF-β for five days): concentration-dependent repression | LPS-induced ICAM1 induction ([7]; immunoblotting): attenuate | LPS-induced cytoskeletal remodelling ([7]; immunofluorescence): attenuate | LPS-induced loss of barrier function ([7]; paracellular permeability): attenuate

From patent US20230190869A1, “PEPTIDE INHIBITORS OF GUANINE NUCLEOTIDE EXCHANGE FACTOR H-1” (UCL Business Ltd, priority 2020, published 2023)
